Results from patent US10543259.
Residue numbers refer to the chain shown, from its start. Numbers in names are those of the source.

How the values were obtained:
[1] = molecular target: recombinant human IGFBP-5, 125I-labeled, P24593
[2] = molecular target: T1, recombinant human IGFBP-4, 125I-labeled, P22692
T1 chain: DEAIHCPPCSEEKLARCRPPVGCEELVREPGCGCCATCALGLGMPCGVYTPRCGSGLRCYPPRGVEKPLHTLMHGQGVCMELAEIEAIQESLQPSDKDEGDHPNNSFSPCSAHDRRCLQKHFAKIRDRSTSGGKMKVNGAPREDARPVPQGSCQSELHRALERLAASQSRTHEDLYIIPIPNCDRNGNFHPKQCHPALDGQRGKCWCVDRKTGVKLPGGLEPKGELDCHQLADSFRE

[3] = molecular target: recombinant human IGFBP-3, 125I-labeled, P17936
recombinant human IGFBP-3, 125I-labeled, P17936, sequence (P17936 28-291): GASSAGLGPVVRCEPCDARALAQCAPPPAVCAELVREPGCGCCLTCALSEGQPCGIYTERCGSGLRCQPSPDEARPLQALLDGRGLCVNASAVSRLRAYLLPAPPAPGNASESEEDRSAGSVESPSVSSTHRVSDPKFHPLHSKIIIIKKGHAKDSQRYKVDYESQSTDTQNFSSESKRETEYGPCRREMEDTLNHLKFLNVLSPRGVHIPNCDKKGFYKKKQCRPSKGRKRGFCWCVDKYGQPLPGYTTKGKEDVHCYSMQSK

recombinant human IGFBP-5, 125I-labeled, P24593, sequence (P24593 21-272): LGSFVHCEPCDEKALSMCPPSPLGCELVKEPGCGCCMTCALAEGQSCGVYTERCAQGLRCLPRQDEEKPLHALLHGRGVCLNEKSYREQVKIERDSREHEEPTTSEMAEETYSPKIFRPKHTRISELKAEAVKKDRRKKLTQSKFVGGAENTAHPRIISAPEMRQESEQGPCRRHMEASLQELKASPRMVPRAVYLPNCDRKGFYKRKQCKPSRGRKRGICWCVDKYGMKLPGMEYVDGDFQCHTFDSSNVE

B1: recombinant wild-type human PAPP-A2 (pregnancy-associated plasma protein-A2) (protein)
chain: PPEESNQNGGEGSYREAETFNSQVGLPILYFSGRRERLLLRPEVLAEIPREAFTVEAWVKPEGGQNNPAIIAGVFDNCSHTVSDKGWALGIRSGKDKGKRDARFFFSLCTDRVKKATILISHSRYQPGTWTHVAATYDGRHMALYVDGTQVASSLDQSGPLNSPFMASCRSLLLGGDSSEDGHYFRGHLGTLVFWSTALPQSHFQHSSQHSSGEEEATDLVLTASFEPVNTEWVPFRDEKYPRLEVLQGFEPEPEILSPLQPPLCGQTVCDNVELISQYNGYWPLRGEKVIRYQVVNICDDEGLNPIVSEEQIRLQHEALNEAFSRYNISWQLSVHQVHNSTLRHRVVLVNCEPSKIGNDHCDPECEHPLTGYDGGDCRLQGRCYSWNRRDGLCHVECNNMLNDFDDGDCCDPQVADVRKTCFDPDSPKRAYMSVKELKEALQLNSTHFLNIYFASSVREDLAGAATWPWDKDAVTHLGGIVLSPAYYGMPGHTDTMIHEVGHVLGLYHVFKGVSERESCNDPCKETVPSMETGDLCADTAPTPKSELCREPEPTSDTCGFTRFPGAPFTNYMSYTDDNCTDNFTPNQVARMHCYLDLVYQQWTESRKPTPIPIPPMVIGQTNKSLTIHWLPPISGVVYDRASGSLCGACTEDGTFRQYVHTASSRRVCDSSGYWTPEEAVGPPDVDQPCEPSLQAWSPEVHLYHMNMTVPCPTEGCSLELLFQHPVQADTLTLWVTSFFMESSQVLFDTEILLENKESVHLGPLDTFCDIPLTIKLHVDGKVSGVKVYTFDERIEIDAALLTSQPHSPLCSGCRPVRYQVLRDPPFASGLPVVVTHSHRKFTDVEVTPGQMYQYQVLAEAGGELGEASPPLNHIHGAPYCGDGKVSERLGEECDDGDLVSGDGCSKVCELEEGFNCVGEPSLCYMYEGDGICEPFERKTSIVDCGIYTPKGYLDQWATRAYSSHEDKKKCPVSLVTGEPHSLICTSYHPDLPNHRPLTGWFPCVASENETQDDRSEQPEGSLKKEDEVWLKVCFNRPGEARAIFIFLTTDGLVPGEHQQPTVTLYLTDVRGSNHSLGTYGLSCQHNPLIINVTHHQNVLFHHTTSVLLNFSSPRVGISAVALRTSSRIGLSAPSNCISEDEGQNHQGQSCIHRPCGKQDSCPSLLLDHADVVNCTSIGPGLMKCAITCQRGFALQASSGQYIRPMQKEILLTCSSGHWDQNVSCLPVDCGVPDPSLVNYANFSCSEGTKFLKRCSISCVPPAKLQGLSPWLTCLEDGLWSLPEVYCKLECDAPPIILNANLLLPHCLQDNHDVGTICKYECKPGYYVAESAEGKVRNKLLKIQCLEGGIWEQGSCIPVVCEPPPPVFEGMYECTNGFSLDSQCVLNCNQEREKLPILCTKEGLWTQEFKLCENLQGECPPPPSELNSVEYKCEQGYGIGAVCSPLCVIPPSDPVMLPENITADTLEHWMEPVKVQSIVCTGRRQWHPDPVLVHCIQSCEPFQADGWCDTINNRAYCHYDGGDCCSSTLSSKKVIPFAADCDLDECTCRDPKAEENQ
- proteolytic cleavage of radiolabeled IGFBP (SDS-PAGE, autoradiography) [1]: media from cells transfected with WT PAPP-A2 cDNA completely cleaved these substrates
- proteolytic cleavage of radiolabeled IGFBP (SDS-PAGE, autoradiography) [2]: none of the variants cleaved the PAPP-A substrate, IGFBP-4
- proteolytic cleavage of radiolabeled IGFBP (SDS-PAGE, autoradiography) [3]: media from cells transfected with WT PAPP-A2 cDNA completely cleaved these substrates

B2: PAPP-A2(A1033V) (protein)
chain: B1 chain with A799V
- proteolytic cleavage at equimolar concentrations of wild type and mutant (6 h reaction) [1]: at equimolar concentrations (FIG. 3C), it still showed no activity
- proteolytic cleavage of radiolabeled IGFBP (SDS-PAGE, autoradiography) [1]: showed no proteolytic activity towards IGFBP-3 or -5
- proteolytic cleavage of radiolabeled IGFBP (SDS-PAGE, autoradiography) [2]: none of the variants cleaved the PAPP-A substrate, IGFBP-4
- proteolytic cleavage at equimolar concentrations of wild type and mutant (6 h reaction) [3]: at equimolar concentrations (FIG. 3C), it still showed no activity
- proteolytic cleavage of radiolabeled IGFBP (SDS-PAGE, autoradiography) [3]: showed no proteolytic activity towards IGFBP-3 or -5
